In US20220054583A1 (ANBITION S R L, published 2022):
Square brackets hold non-standard residues; d marks the D form. Ends that are not written are not given here. * marks the point of attachment. Met(O2) = CS(=O)(=O)CC[C@H](N)C(=O)O; Cha = N[C@@H](CC1CCCCC1)C(=O)O; Bn = c1ccc(C*)cc1

T1: human recombinant receptor VEGFR-1, seven extracellular domains fused to the Fc domain of human IgG (R&D Systems, cat No 321-FL) (human), P17948
T1 chain: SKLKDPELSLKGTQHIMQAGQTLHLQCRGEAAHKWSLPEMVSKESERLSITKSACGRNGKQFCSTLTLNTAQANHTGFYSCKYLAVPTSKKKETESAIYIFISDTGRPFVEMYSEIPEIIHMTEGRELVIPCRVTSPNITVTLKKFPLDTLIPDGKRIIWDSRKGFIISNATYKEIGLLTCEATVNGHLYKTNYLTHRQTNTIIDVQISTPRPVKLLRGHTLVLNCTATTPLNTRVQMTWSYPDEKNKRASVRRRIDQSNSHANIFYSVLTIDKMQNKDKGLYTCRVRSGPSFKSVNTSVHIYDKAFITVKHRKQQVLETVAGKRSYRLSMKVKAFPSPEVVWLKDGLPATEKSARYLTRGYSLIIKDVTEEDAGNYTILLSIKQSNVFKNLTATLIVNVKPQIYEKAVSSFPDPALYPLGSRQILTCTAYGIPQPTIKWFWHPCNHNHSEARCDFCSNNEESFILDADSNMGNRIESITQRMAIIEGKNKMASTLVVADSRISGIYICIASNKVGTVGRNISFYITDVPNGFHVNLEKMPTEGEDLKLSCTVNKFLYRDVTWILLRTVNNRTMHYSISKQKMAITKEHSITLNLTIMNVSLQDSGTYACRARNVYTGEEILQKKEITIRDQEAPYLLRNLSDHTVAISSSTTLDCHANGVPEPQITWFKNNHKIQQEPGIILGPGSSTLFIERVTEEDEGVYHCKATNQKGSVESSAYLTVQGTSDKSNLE

B1: iVR1-Cys, tetrameric peptide of formula (IIb) (peptide)
peptide: H-[dE]-Cys(Bn)-[Cha]
chain 1: Lys
chain 2: Lys-[dC]-NH2
modifications: also: branched: four ECX arms on two Z1 Lys, both on Z2 Lys
B2: iVR1, tetrameric peptide of formula (IIc) (peptide)
peptide: H-[dE]-Cys(Bn)-[Cha]
chain 1: Lys
chain 2: Lys-Gly-NH2
modifications: also: branched: four ECX arms on two Z1 Lys, both on Z2 Lys
B3: tetrameric peptide of formula (II) with Y2 = D-serine (peptide)
peptide: [dE]-Cys(Bn)-[Cha]
chain 1: Lys
chain 2: Lys-[dS]
modifications: also: tetrameric: four tripeptide arms on two Z1 lysines, carried on Z2 lysine
notes: Variant of iVR1-Cys with another Y2; only Y2 is printed
B4: tetrameric peptide of formula (II) with Y2 = L-cysteine (peptide)
peptide: [dE]-Cys(Bn)-[Cha]
chain 1: Lys
chain 2: Lys-Cys
modifications: also: tetrameric: four tripeptide arms on two Z1 lysines, carried on Z2 lysine
notes: Variant of iVR1-Cys with another Y2
B5: tetrameric peptide of formula (II) with Y2 = L-methionine sulfone (peptide)
peptide: [dE]-Cys(Bn)-[Cha]
chain 1: Lys
chain 2: Lys-[Met(O2)]
modifications: also: tetrameric: four tripeptide arms on two Z1 lysines, carried on Z2 lysine
notes: as for B3

Legend:
[1] = biological target: T1, human recombinant receptor VEGFR-1, …; experiment: competition ELISA, PlGF binding to coated VEGFR-1-Fc
[2] = biological target: T1, human recombinant receptor VEGFR-1, …; experiment: competition ELISA, VEGF-A binding to coated VEGFR-1-Fc
[3] = biological target: T1, human recombinant receptor VEGFR-1, …; experiment: competition ELISA, PlGF or VEGF-A binding to coated VEGFR-1-Fc; reference iVR1
[4] = biological target: T1, human recombinant receptor VEGFR-1, …; experiment: competition ELISA, residual binding of PlGF (5 ng/ml) to coated VEGFR-1-Fc, peptide 780 nM
[5] = biological target: T1, human recombinant receptor VEGFR-1, …; experiment: competition ELISA, residual binding of PlGF (5 ng/ml) to coated VEGFR-1-Fc, peptide 1560 nM
[6] = biological target: T1, human recombinant receptor VEGFR-1, …; experiment: competition ELISA, residual binding of PlGF (5 ng/ml) to coated VEGFR-1-Fc, peptide 3125 nM
[7] = biological target: T1, human recombinant receptor VEGFR-1, …; experiment: competition ELISA, residual binding of PlGF (5 ng/ml) to coated VEGFR-1-Fc, peptide 6250 nM
[8] = biological target: T1, human recombinant receptor VEGFR-1, …; experiment: competition ELISA, residual binding of PlGF (5 ng/ml) to coated VEGFR-1-Fc, peptide 12500 nM
[9] = biological target: T1, human recombinant receptor VEGFR-1, …; experiment: competition ELISA, residual binding of PlGF (5 ng/ml) to coated VEGFR-1-Fc, peptide 25000 nM
[10] = biological target: T1, human recombinant receptor VEGFR-1, …; experiment: competition ELISA, residual binding of PlGF (5 ng/ml) to coated VEGFR-1-Fc, peptide 50000 nM
[11] = biological target: T1, human recombinant receptor VEGFR-1, …; experiment: competition ELISA, residual binding of VEGF-A (5 ng/ml) to coated VEGFR-1-Fc, peptide 780 nM
[12] = biological target: T1, human recombinant receptor VEGFR-1, …; experiment: competition ELISA, residual binding of VEGF-A (5 ng/ml) to coated VEGFR-1-Fc, peptide 1560 nM
[13] = biological target: T1, human recombinant receptor VEGFR-1, …; experiment: competition ELISA, residual binding of VEGF-A (5 ng/ml) to coated VEGFR-1-Fc, peptide 3125 nM
[14] = biological target: T1, human recombinant receptor VEGFR-1, …; experiment: competition ELISA, residual binding of VEGF-A (5 ng/ml) to coated VEGFR-1-Fc, peptide 6250 nM
[15] = biological target: T1, human recombinant receptor VEGFR-1, …; experiment: competition ELISA, residual binding of VEGF-A (5 ng/ml) to coated VEGFR-1-Fc, peptide 12500 nM
[16] = biological target: T1, human recombinant receptor VEGFR-1, …; experiment: competition ELISA, residual binding of VEGF-A (5 ng/ml) to coated VEGFR-1-Fc, peptide 25000 nM
[17] = biological target: T1, human recombinant receptor VEGFR-1, …; experiment: competition ELISA, residual binding of VEGF-A (5 ng/ml) to coated VEGFR-1-Fc, peptide 50000 nM
[18] = biological target: T2, human recombinant receptor VEGFR-1, seven extracellular domains fused to the Fc domain of human IgG (R&D … (human, UniProt P17948 27-758)); experiment: competition ELISA, VEGF-A binding to coated VEGFR-1-Fc
T2 construct: Bought reagent; also called Flt-1; not shown: Fc domain of human IgG

Binder | IC50 [1] [µM] | IC50 [2] [µM] | fold inhibitory capacity against iVR1 [3] [fold] | binding % [4] [%] | binding % [5] [%] | binding % [6] [%] | binding % [7] [%] | binding % [8] [%] | binding % [9] [%] | binding % [10] [%] | binding % [11] [%] | binding % [12] [%] | binding % [13] [%] | binding % [14] [%] | binding % [15] [%] | binding % [16] [%] | binding % [17] [%] | IC50 [18] [µM]
B1 | < 1 | 1 | 10 | 83.8 | 35.5 | 25.5 | 14.1 | 12.6 | 10.3 | 9.18 | 92.3 | 43.7 | 21.7 | 12.5 | 9.81 | 7.99 | 6.5 | –
B2 | 10 | 10 | – | 99.4 | 101 | 96.1 | 68.5 | 44.6 | 36 | 26.3 | 98.4 | 96.2 | 93.9 | 66 | 37 | 21.4 | 8.6 | –
B3 | – | – | – | – | – | – | – | – | – | – | – | – | – | – | – | – | – | 2.43
B4 | – | – | – | – | – | – | – | – | – | – | – | – | – | – | – | – | – | 2.03
B5 | – | – | – | – | – | – | – | – | – | – | – | – | – | – | – | – | – | 4.62
